The source of these data is patent publication US7238711.

Test [1] has as its target T1, Duffy Antigen Receptor for Chemokines (DARC) (human), Q16570.
T1 chain: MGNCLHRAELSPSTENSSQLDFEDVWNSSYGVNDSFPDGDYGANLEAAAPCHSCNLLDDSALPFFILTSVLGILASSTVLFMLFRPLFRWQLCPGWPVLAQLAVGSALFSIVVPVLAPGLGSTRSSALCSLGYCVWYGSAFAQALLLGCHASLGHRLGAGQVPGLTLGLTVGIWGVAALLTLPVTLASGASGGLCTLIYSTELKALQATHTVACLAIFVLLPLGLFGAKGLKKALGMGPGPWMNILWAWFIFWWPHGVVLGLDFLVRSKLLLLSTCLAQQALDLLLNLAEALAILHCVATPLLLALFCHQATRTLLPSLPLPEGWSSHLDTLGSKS
The test is described as follows: ka for red blood cells divided by ka for THP-1 cells.

Test [2] deals with chemokine receptors on the surface of Jurkat cells. The test is described as follows: binding to Jurkat cells.
Test [3] has as its target chemokine receptors on THP-1 cells. Kind of test: binding to THP-1 cells.
The target is the same in test [4]. Kind of test: receptors on THP-1 cells against DARC.
In test [5] the target is T1, Duffy Antigen Receptor for Chemokines …. Kind of test: estimated ka for red blood cells divided by average inhibitory ED50.
A further test deals with MCP-1 (human), P13500. Kind of test: cell-based or functional assay.
Chain of MCP-1 (human), P13500 (P13500 24-99 limits assumed): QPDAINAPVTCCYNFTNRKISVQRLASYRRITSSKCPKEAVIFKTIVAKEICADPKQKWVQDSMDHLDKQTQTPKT
In test [6] the target is Duffy Antigen Receptor for Chemokines (DARC) (human) (UniProt Q16570). The test is described as follows: DARC binding, red blood cells (given as association constant).
In test [7] the target is chemokine receptors on THP-1 cells. Kind of test: binding to THP-1 cells (given as association constant).
The target in test [8] is Duffy Antigen Receptor for Chemokines (DARC) (human) (UniProt Q16570). The test is described as follows: estimated ka for red blood cells divided by average inhibitory ED50.
For test [9], the target named is cell surface molecule on THP-1 cells. Kind of test: binding of biotinylated peptide 3 to THP-1 cells, labeled streptavidin.
The target of another test is T2, CXCR1 (human), P25024.
T2 chain: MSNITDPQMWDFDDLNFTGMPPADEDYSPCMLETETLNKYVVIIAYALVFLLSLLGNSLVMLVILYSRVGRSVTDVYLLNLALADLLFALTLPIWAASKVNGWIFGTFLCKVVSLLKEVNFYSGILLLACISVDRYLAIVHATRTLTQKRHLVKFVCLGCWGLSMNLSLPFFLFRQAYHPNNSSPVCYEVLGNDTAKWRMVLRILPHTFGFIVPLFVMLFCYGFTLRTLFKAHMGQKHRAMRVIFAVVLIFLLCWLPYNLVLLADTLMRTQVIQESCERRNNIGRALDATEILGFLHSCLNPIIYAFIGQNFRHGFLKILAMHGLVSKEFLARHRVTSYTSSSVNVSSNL
Kind of test: biotin-labeled peptide at 10 µM on CHO transformants, 125I-streptavidin.

The next test deals with T3, CXCR2 (human), P25025.
T3 chain: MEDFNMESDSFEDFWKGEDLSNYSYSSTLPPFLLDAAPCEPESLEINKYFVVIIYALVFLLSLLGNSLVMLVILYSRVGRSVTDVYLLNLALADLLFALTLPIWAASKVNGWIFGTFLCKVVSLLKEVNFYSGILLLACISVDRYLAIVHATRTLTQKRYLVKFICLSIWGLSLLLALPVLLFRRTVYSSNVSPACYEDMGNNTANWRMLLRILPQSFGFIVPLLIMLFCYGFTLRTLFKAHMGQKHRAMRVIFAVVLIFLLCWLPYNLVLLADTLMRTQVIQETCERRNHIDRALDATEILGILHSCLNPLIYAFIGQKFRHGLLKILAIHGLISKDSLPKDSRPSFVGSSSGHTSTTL
The test is described as above.

Another test concerns the target T4, CCR3 (human), P51677.
T4 chain: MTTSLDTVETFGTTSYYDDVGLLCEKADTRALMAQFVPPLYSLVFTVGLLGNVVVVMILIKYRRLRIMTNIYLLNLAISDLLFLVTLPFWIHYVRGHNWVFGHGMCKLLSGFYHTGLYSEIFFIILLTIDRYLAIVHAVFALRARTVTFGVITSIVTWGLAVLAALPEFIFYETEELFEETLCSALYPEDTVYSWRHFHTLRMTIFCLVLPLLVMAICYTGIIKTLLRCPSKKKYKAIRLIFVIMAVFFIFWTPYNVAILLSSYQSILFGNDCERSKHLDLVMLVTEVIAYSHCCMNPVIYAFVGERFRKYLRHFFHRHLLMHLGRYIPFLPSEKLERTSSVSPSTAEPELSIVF
Kind of test: biotin-labeled peptide at 10 µM on HOS transformants, 125I-streptavidin.

The target in the next test is T5, CXCR4 (human), P61073.
T5 chain: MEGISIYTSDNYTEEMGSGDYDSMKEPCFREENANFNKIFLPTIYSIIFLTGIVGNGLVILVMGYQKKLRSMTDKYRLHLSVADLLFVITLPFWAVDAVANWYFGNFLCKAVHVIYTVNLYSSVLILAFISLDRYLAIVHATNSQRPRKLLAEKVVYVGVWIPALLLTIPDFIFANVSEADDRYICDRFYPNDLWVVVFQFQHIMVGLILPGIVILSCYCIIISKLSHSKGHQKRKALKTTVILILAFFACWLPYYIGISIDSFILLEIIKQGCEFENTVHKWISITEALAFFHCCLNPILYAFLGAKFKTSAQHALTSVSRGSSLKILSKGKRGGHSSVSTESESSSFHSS
The description is as above.

In a further test the target is T6, CCR1 (human), P32246.
T6 chain: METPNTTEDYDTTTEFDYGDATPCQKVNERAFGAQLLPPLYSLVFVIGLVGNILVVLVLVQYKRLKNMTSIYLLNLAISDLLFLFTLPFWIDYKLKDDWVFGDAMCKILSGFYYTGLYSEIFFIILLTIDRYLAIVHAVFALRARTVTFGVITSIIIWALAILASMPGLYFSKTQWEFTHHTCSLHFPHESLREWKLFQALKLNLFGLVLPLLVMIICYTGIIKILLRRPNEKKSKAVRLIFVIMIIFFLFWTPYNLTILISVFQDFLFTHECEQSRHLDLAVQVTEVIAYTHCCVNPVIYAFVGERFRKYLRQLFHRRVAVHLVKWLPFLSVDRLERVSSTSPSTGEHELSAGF
Described as above.

In a further test the target is T7, CCR4 (human), P51679.
T7 chain: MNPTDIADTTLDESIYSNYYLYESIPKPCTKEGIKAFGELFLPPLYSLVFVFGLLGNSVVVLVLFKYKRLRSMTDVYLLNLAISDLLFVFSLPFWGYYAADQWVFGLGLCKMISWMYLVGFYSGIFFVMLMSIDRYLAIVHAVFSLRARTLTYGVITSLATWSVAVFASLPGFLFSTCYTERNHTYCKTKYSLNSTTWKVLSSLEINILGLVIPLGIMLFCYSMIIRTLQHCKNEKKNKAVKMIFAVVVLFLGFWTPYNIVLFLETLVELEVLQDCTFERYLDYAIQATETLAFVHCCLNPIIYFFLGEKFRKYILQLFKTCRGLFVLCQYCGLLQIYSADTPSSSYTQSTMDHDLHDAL
The description is as above.

The next test concerns the target CCR2 (human), P41597. The test is described as above.
Test [10] concerns the target CCR5 (human), P51681. Described as above.
The target of test [11] is CCR5 (human), P51681. The test is described as follows: cell-based or functional assay.
Chain of CCR5 (human), P51681 (P51681 whole entry): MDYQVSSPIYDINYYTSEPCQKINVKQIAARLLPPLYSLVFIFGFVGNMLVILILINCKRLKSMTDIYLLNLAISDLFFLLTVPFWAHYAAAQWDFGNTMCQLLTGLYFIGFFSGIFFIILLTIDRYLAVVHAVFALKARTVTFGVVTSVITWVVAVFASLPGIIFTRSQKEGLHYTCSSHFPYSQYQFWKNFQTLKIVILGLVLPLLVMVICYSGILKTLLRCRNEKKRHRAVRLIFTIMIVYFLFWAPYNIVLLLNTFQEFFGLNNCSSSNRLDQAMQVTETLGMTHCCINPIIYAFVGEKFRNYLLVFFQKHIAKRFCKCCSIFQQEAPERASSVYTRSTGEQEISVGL
In test [12] the target is CCR5 (human), P51681. Kind of test: 12-point Scatchard, parental HOS line (the filing suggests background CCR5). Particulars: remark: other sources report otherwise.
The target in test [13] is CCR5 (human), P51681. The test is described as follows: 12-point Scatchard, 0.03 nM 125I-RANTES with cold RANTES, 4° C., 2 hours. Particulars: remark: other sources report otherwise.
The target in test [14] is CCR5 (human), P51681. Kind of test: 12-point Scatchard, HOS CCR5 line. Particulars: remark: other sources report otherwise.
Test [15] concerns the target CCR5 (human), P51681. Kind of test: 125I-RANTES Scatchard, HOS CCR5 line. Particulars: remark: other sources report otherwise.
In test [16] the target is CCR5 (human), P51681. Kind of test: 125I-RANTES Scatchard, parental HOS line (the filing suggests background CCR5). Particulars: remark: other sources report otherwise.

Values joined by “and” are separate entries in the source; they are usually repeats but may differ in a detail not shown here. Equal values may be shown once. No end group written: not given here. Bounds are passed on as bounds.

Chain of CCR2 (human), P41597 (P41597 whole entry): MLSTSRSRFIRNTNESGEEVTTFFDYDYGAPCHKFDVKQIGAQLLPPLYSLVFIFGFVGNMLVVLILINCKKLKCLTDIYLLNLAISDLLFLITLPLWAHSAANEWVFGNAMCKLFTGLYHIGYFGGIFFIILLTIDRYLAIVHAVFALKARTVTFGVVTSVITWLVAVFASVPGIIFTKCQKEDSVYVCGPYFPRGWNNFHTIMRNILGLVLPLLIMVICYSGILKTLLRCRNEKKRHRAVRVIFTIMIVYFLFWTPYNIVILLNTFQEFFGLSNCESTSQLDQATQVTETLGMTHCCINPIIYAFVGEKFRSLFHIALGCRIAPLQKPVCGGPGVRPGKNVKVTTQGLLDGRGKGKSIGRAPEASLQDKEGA

B1: Pep2(1-16)[IL8] (peptide)
peptide: ELRVIESGPHCANTEI
modifications: not fully specified
Regarding B1, in test [1], the Duffy selectivity was below 1.

B2: peptide 2(1-15)[MCP-1] (peptide)
peptide: SYRRITSSKCPKEAV
By IC50 is commonly meant the concentration at which inhibition is half-maximal. Low readings indicate higher potency, high ones lower potency. B2 had an IC50 with chemokine receptors of 0.4 µM. Besides, the figures for the binding sites per cell in test [2] and in test [3] were 55000 sites/cell and 130000 sites/cell, respectively.

B3: Leu4Ile11 peptide 3(1-12)[MCP-1] (peptide)
peptide: EICLDPKQKWIQ
modifications: not fully specified
With B3, in [4], the fold selectivity over DARC was above 20 fold. The Duffy selectivity in test [5] is 37.8.

B4: Ser7 peptide 3(1-12)[MCP-1] (peptide)
peptide: EICADPSQKWVQ
modifications: not fully specified
Turning to B4, in test [5], the Duffy selectivity is 2.

B5: Peptide 1[MCP-1] (peptide)
peptide: AQPDAINAPVTCC
modifications: not fully specified; cysteine pairing not given here
In the test with MCP-1 (human), P13500, B5 displayed an inhibition of MCP-1 induced THP-1 migration, peptide with the chemokine in the lower compartment of 48%.

B6: CRD-Cys13Leu4Ile11 peptide 3(3-12)[MCP-1] (peptide)
peptide: CQIWKQKPDLC
modifications: not fully specified (some residues, bridges); cysteine pairing not given here
As a reminder, the Kd is the equilibrium constant for the complex coming apart. Low values mean tighter binding, high ones weaker binding. B6 registered a binding sites per cell (sites per cell) in test [3] of 150000. Further, the dissociation constant (Kd) in test [6] was 90 µM; in [7], 0.1 to 0.5 µM. In addition, in [8], the Duffy selectivity was above 100.

B7: Ser7Glu8Glu9 peptide 3(1-12)[MCP-1] (peptide)
peptide: EICADPSEEWVQ
modifications: not fully specified
On to B7, for which the Duffy selectivity in test [5] was 0.59.

B8: N-terminal biotin conjugate of the sequence n'-…-c' (peptide)
peptide: CLDPKQKWIQC
modifications: not fully specified (N-terminus); cysteine pairing not given here
In test [9], B8 showed a binding sites per cell (receptors/cell) of 1000. The Kd in the test with CXCR1 (human), P25024 was above 10 µM; with CXCR2 (human), P25025, above 10 µM; with CCR3 (human), P51677 it was above 10 µM; with CXCR4 (human), P61073, above 10 µM; with CCR1 (human), P32246 it was above 10 µM; with CCR4 (human), P51679, above 10 µM. For the same molecule, the Kd is above 10 µM with CCR2 (human), P41597 and above 10 µM in the test with CCR5 (human), P51681 [10].

B9: Pep2(1-15)[SDF1] (peptide)
peptide: HLKILNTPNCALQIV
B9: the IC50 with chemokine receptors came to 35 µM.

B10: CRD-Cys13pep3[3-12] (peptide)
peptide: CQVWKQKPDAC
modifications: not fully specified (some residues, bridges); cysteine pairing not given here
For B10, the Duffy selectivity in [8] is 8.82.

B11: peptide 3(1-12)[MCP-1] (peptide)
peptide: EICADPKQKWVQ
modifications: not fully specified
Regarding B11, the decrease in HIV infection of THP-1 cells, immunofluorescence staining with CCR5 (human), P51681 [11] came out at 83%. For the same molecule, the Duffy selectivity in [5] (remark: other sources report otherwise) was 1.

B12: Pep2(1-14)[MIP1α] (peptide)
peptide: DYFETSSQCSKPGV
B12 yielded an IC50 with chemokine receptors above 100 µM. The molecule also showed a binding sites per cell (sites per cell) in test [3] of 150000.

B13: RANTES, P13501 24-91 (ligand, UniProt P13501 24-91, looked up)
chain: SPYSSDTTPCCFAYIARPLPRAHIKEYFYTSGKCSNPAVVFVTRKNRQVCANPEKKWVREYINSLEMS
Consider B13, for which the binding sites per cell (sites per cell) with CCR5 (human), P51681 [12] is 100000; with CCR5 (human), P51681 [14], 200000; with CCR5 (human), P51681 [15], 200000 and 400000; in the test with CCR5 (human), P51681 [16] it was 80000. In the test with CCR5 (human), P51681 [13], this molecule gave a Kd of 0.001 µM.

B14: Pep3(3-12)[MCP-1] (peptide)
peptide: CADPKQKWVQ
modifications: not fully specified
As to B14, the Duffy selectivity in test [5] was 1.21.
